Assay results: US20250313644A1 (FUTUREGEN BIOPHARMACEUTICAL BEIJING, published 2025)

Target: T1, human TL1A (HuTL1A) (human, UniProt O95150 57-251, limits assumed, biotin-labelled in some assays (site not stated))
T1 construct: Expressed in EXPI-293 cells and purified by Ni-NTA (His-tag); Described as a trimeric antigen; also called TL1A antigen; WT
T1 sequence: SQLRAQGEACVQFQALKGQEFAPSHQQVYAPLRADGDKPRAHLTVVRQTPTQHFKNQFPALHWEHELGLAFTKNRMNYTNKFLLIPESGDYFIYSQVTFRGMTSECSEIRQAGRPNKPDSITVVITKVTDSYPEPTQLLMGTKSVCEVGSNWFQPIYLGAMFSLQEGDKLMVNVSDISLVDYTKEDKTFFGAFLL
Assay: ELISA: biotin-HuTL1A on streptavidin plate, antibody diluted at pH 5.8, HRP-anti-human Fc, OD450
Method: Corresponding antibodies were added to specific wells, and the antibodies were diluted with sodium dihydrogen phosphate-citrate buffer at pH 7.4, pH 6.0, pH 5.8, or pH 5.6. Binding assay was carried out at room temperature for 30 minutes. After the incubation, the excess antibodies were removed and the wells were washed by PBST. HRP-anti-Human Fc (Sino Biological) was then added into each well and incubated for 30 minutes to detect the bound antibody. The substrate TMB was finally added to develop color for 5-10 minutes. The color development reaction was terminated with 1M sulfuric acid. OD450 nm was recorded on a microplate reader, and the data were processed and fitted by 4 parameter logistic regression.

B1: M701-4007 (antibody, human IgG1, kappa, L234A L235A, V domains shown)
VH: ELQLQESGPGLVKPSETLSLTCAVSGVSFSDYHWAWIRQPPGKGLEWIGDINHRGHTNYNPSLKSRVTVSIDTSKNQFSLKLSSVTAADTAVYFCARDFPNFIFDFWGQGTLVTVSS
VL: DIQLTQSPGTLSLSPGERATLSCRASQSVSTYLAWYQQKPGQAPRLLIYGASKRATGIPDRFSGSGSGTDFTLTISRLEPEDFAVYYCQQYGDSPLTFGQGTKVEIKR
notes: Fc-engineered IgG1
- EC50 (read off the curve): ~0.7 nM
